Source: patent US8980830B2 (priority 2007, dated 2015)

Conditions: pH 7

Glucagon Cys^17 Mal-PEG-5K [Glucagon, Cys17PEG5K]
Percent Soluble: 94%
